Measurements from article PMC5606208 (Nature, 2017).

B1: PhosNH-α/βchimera (N-terminus and Hinge from HP1α with the Chromodomain, Chromoshadow domain and CTE from HP1β, phosphorylated) (other, human)
chain: GKKTKRTADSSSSEDEEEYVVEKVLDRRVVKGKVEYLLKWKGFSDEDNTWEPEENLDCPDLISEFMKKYKKMKEGENNKPREKSESNKRKSNFSNSADDIKSKKKREQSNDIARGFARGLEPERIIGATDSSGELMFLMKWKNSDEADLVPAKEANVKCPQVVISFYEERLTWHSYPSEDDDKKDDKN
modifications: phosphorylated NTE (fully phosphorylated, sites not given)
B2: nPhos-HP1α (HP1α S92A, S95A, S97A co-expressed with CKII, phosphorylated only in the N-terminal extension) (natural protein, human, UniProt P45973 1-191, looked up)
chain: MGKKTKRTADSSSSEDEEEYVVEKVLDRRVVKGQVEYLLKWKGFSEEHNTWEPEKNLDCPELISEFMKKYKKMKEGENNKPREKSESNKRKANFANAADDIKSKKKREQSNDIARGFERGLEPEKIIGATDSCGDLMFLMKWKDTDEADLVLAKEANVKCPQIVIAFYEERLTWHAYPEDAENKEKETAKS
modifications: phosphorylated at Ser11, Ser12, Ser13, Ser14 (NTE); 8 phosphates per dimer by native MS

Tests used:
AUC = target: the molecule itself; assay: AUC
SEC-MALS = target: the molecule itself; assay: SEC-MALS

Protein | binding result (AUC) | stoichiometry N (SEC-MALS)
B1 | binds | –
B2 | – | 2
